Experimental data published in the DeepSol protein solubility set.

Assay: soluble on expression in E. coli; label from the status in PepcDB or PDB records

Soluble on expression in E. coli, soluble:
SKNGLKKRKLTNPVQLDDFDGYIKDMAKDSDYKFSLQFEELKLIGLDIPHFAADLPMNRCKNRYTNILPYDFSRVRLVSMNEEEGSDYINANYIPGYNSPQEYIATQGPLPETRNDFWKMVLQQKSQIIVMLTQCNEKRRVKCDHYWPFTEDPIAYGDITVEMLSEEEHTDWVYRNFRISYADEVQDVMHFNYTAWPDHGVPTANAAESILQFVQMVRQKSVKSKGPMIIHCSAGVGRTGTFIALDWLLQHIRDHEFVDILGLVSDMRSYRMSMVQTEEQYIFIHQCVQLMWQKKKQQFCISDVIYENVSKS, SLAGVSYAAPWWVSLLHRLPHFDLRWEATSSQFRPEDADYQQAASAYGNGETSDGIHRATYSLRHANRTVAGVQDRVWDTAAALNRTAEPNLQSLERQLAGRQEPLRAVQRLQTGAARSSKGSAACSIPHTWQQKRGPDDDGEEETAPGPR, SLANLSKERQQALLKILHYIQDGGDFTEAKKMFQESFDKVDVSEITAAERELIAQGLDPRKIQYLCNVHADVFKGNIKENAANPDFATPGHPVNTLKQENVVIKSLVNDYLLPNLKKWEKDHSEQTLSKIKQALSDLATIGKHYARKETSFFPLMTKYGITAPPQVMWGVDDKIRRLIKEANNVVNENDVDPAKLRKIIDEVSHEVLEMIFKEEEIMVPMIDEVASPADWGNVKDEEKQIGYTLINPPMNWKPKEE, SLEKLEFEDEAVEDSESGVYMRFMRSHKCYDIVPTSSKLVVFDTTLQVKKAFFALVANGVRAAPLWESKKQSFVGMLTITDFINILHRYYKSPMVQIYELEEHKIETWRELYLQETFKPLVNISPDASLFDAVYSLIKNKIHRLPVIDPISGNALYILTHKRILKFLQLFMSDMPKPAFMKQNLDELGIGTYHNIAFIHPDTPIIKALNIFVERRISALPVVDESGKVVDIYSKFDVINLAAEKTYNNLDITVTQALQHRSQYFEGVVKCNKLEILETIVDRIVRAEVHRLVVVNEADSIVGIISLSDILQALILTPAGAKQKETETE, SLFKVGKVSYLNTLPLFYSLEGFEVVEGVPSELVEKLRRGEIHAGIVSSVEYFFNPQDYFILSGISISSRGSVCSVKLFSNEPMEKIREVNITKASLTSRELLFYLFEKKFGFVPKESEEAQAKLLIGDEAMEQKGYKFVYDLGEEWFKLHGLPFVFALFLVKRDADISKAKFLKKEIKKSVKNFFEEGIKNIKNKEYFKNCLDYSLGGEHIKSLINFYAYLSRKFKKQVPKLKFVL, SLFLLDPFSGISGDMFLSAMIDFVDKEDFINTIKKVIDVEIEIKKVKKCHILANKVNIIPKCINCNANTYKDIKNVIKSSDIQEDIKITALEILKILAEAESKVHNVDVENVHFHEVGNYDTIADIVGAAYIINKLNLKNNCLYKPINVGNGFVRTEHGLLPVPAPATAEILKGLKIFFSDINEELTTPTGSAIIKYINPKLAKGAFIIKEVSYGAGDKDLNLLNALRVFRVEDIKREDIVLLETNVDDISAEILGYLYEVLDGKVRDLHFIPTYMKKNRPAYTIRAIVDRDIAEEVAKIIMRETGSLGVRIFDIERITADREFKTIKLFDESVRLKVGRVNDEIISQKPEFEDLKNIAKKYGIPLKDLYKLINISQIKN, SLFQIGDNIVYPMHGAGIIEAIEEKEFLEEKQQYYVIRMSISNMTVMIPTSKILSSNIRPVTDILALKHIMHIFQHGESDRLLPWKQRYKINTDKIKTGEIQEGAEVVRDLMRMKKEKALNASEKKMLDNAYEFLISELEVIKGITEKQIKSFG, SLGEVPSPQELIEVADAAPNAASGVLKLYRAYREQAQRLSDLSDLLAREGHETALSSTRLPIDEVRHVFENRPAYFHAIDAAAEELHKQLSTGDDLASGLRAWLQKNHGIVVRTLPVHAMPNLRRRYDRHSMRLFLSERLSQPDQLREMAMETCLLALREEIGTELEALGLKGEEARRIARFELARYAAHALMMPYGAFLAAAQRAKYDLDVLRSRFNVSFEQAANRLVSLQRPTTAAIPFFLMEIDNAGNRFRLAGAGGFPRARFGGLCPRLNIHAAFAQPGQVLVESVEMPDGDAFLTVSRTLEGPQAGFGERVRRTAVLLGCDLGQAGETVYGPAASGAAPVAIGPSCRLCERQGCLSRAEAPLTRPLGLDEMVTGLSVFDFQ, SLIYFFMVDAVELSRKYEGKIEIYPKVPITSYNDFALIYTPGVAEVSKAIYKDPDKSFELTSRWNTIAVVTDGTRVLGLGNIGPTAAMPVMEGKSLLFKYLGGVDAIPLPINVKSADEFTNVVKALETSFGGINLEDIESPKCFYILEKLQSMLNIPVWHDDQQGTAAAILAGLINAMILTNKDPKESKVVFYGAGASNIAAARILAKYGFKYENIVMIDSKGPLYADREDVDHLMLHHKWKYELAIKTNKWEAKEIKDAFSGADAVVAASTPGPNVIKKEWISLMNKEAIVFALANPVPEIWPQDAKEAGAKIVATGRSDFPNQVNNSLIFPAIFRGVLDSRAKAITDEMTIAASEALAKYARDRGINENYIIPRMDEWEAFYEEAAAVASKAVELGLARVKKSREEFREIAKERIIRARKIMNLVISTWSPEG, SLNILFDIGHPKDVNVFKNVIWKLQERGHEIKIVARAKENTKRVLEEYGFEYEVCKYYKTMSGKALGIITNDIHLYNIAKKFQPDIFVSPGSPYSAHVSRLLRKPHIAFSDTEIAGLVMKLTFPFTDKIYTSSSFYLDLGPKQIRFNGYYELAYLHSNYFTPNRDVLKKYNLDEGYIILRLSALSSHHDIGAKGFTFSSEEELIDFIRELERYGRVIVSSETKQWKTISDYELKFKPGDLHDLLYYSKMCIGEGATMASEAAILGVPAIYVSNTHRGYLDELETYELAFTIQEREEALKKAKSLLEEDSLVKNSKEKREKLLKEKTDVVEFMVNAIEGSYKL, SLPSVLDTLAAHSDNPSSFLALNSGNAYFHDGGFDGACAYRTSGRYVLQFGGPFTAPEHRARLLDAFAAHAGRRLVAVQLQRADAELYAAHGFTVNQLGASYAVDLSRFTLRGSRFVRLRNKISRARRAGLEVAEVMAGDDCAELDRIDQCWLRDKGRHVKELRFLVGQRNGSLQRHRRLFVGRIDGETAGYINYSPVYGSRSGWLHDLSRRRPDAPPGVMEALNATVMERLTAEGAGWLHFGFTPFTGLDPEHELPGASRMFTRFARLLAERGDVIYPAASQLEYKQKWAPHVVLPEYIAFRGRPRPGAVWQLLRATNAL

Soluble on expression in E. coli, not soluble:
SKREMPSMYPQAKGILSALKEKGIEMAIASRSPTSDIANTFLDKLNIKPMFVAKEIYSSWSHKTEHFQKIHTRTGVPFTAMLFFDDEDRNIKSVSKMGVTSILVGDGVTLGAFRQGLTEFTQN, SKRVNSCVKSDEHVLEELETEGERQLKSLLQHQLDTSVSIEECMSKKESFAPGTMYKPFGKEAAGTMTLSQFQTLHEKDQETASLRELGLNETEILIWKSHVSGEKKTKLRATPEAIQNRLQDIEERISERQRILCLPQRFAKSKQLTRREMEIEKSLFQGADRHSFLKALYYQDEPQKKNKGDPMNNLESFYQEMIMKKRLEEFQLMRGEPFASHSLVSATSVGDSGTAESPSLLQDKGKQAAQGKGPSLHVANVIDFSPEQCWTGPKKLTQPIEFVPEDEIQRNRLSEEEIRKIPMFSSYNPGEPNKVLYLKNLSPRVTERDLVSLFARFQEKKGPPIQFRMMTGRMRGQAFITFPNKEIAWQALHLVNGYKLYGKILVIEFGKNKKQRSNLQATSLISCATGSTTEISGS, SKSFNYSVSFNLSDYQGTVLKYSNPKGLIYDYYVGKKMGTIWGYTTDHIMTDPAEAKAINDSGVQNKFGGDWVVGDIKYVNLDDDPNINDGNQTLEDHGDLSIIGNDTPRYNFGFGFNADWNGIDFSMFLQGTMKRDLWLEGPVAFGLGGGQWGSNVWKNTLDCWREDGSNPDPWLPRLYLWSTSKNLQKQTRYMDTGAYCRLKNIQLGYSLPGAIINKVGLEKVRIYFSGDNLLTFSGINENFDPEAPWGGAYPISKSISFGVNVTF, SLAMAAGANVPLDKANVDLTDKASLQNGAKLFMNYCFACHSTQYQRYERVATDLDIPADLMKENLIFNPEAKIGDLMVNAMPPKQAANWFGAPPPDLTLVARVRGADWLYTYLRSFYVDPSRPFGVNNIVFPSVGMPHVLEELQGIPTPVYGTKMVDGEEVKVVVGTETNGTGELSEGEYDKAVGDLVNFLVYAGDP, SLEKELKVITIDELKKYIRNNEEDKIEEVDVVTSATCGIMSGTAGIFHIPFNEVFKRAEEIYLNDIKGVVGICPNEFLGKVDAIFYGEVGFLFKDLVKGKVVEAKAISEGKIYKNEITIDDLPTAKMIGTRMAFKNYTAITNLSDEEVNTIFHRLPLKKGEASFSGCGMLNPLENMVIKDEKDVVGKKALLNGAEAIILGFGTRASIEKPNLMMSADMKDMDAYYLGGFVTSNGIEIYNTIAVPIKVDEHKEALKKLDKDITLPLVNIFGREIIDIGSYAEVWENVDLRPKIYQDKCKNCRECLVEKYCPTFAIKRENGKIKITEDCFGCGVCNICPYGVFKTKLGSVCGIPITCRQSDRKRALKLAKELKKKIERGEFKI, SLEKSGFIVHQKFDSILQLEDFDSLDRALKESESYYQKLPSNWKTQVRKTSYHKNQMLNSLKILKKILREKNPESRKIQFQNSFLLLETKDEALGRITAYYEVIIEGRFYPEGDFIYPVLETPSDLIVKKDGNKKSVGKIINEVFVPYETREELSHTSVWKKRSKAIVYVKIVDLHLAQLEGSAFVKVPDHIPFRITYSEDNGKEYQSPAESLKGICSSLIPSDLKSCILKYPKEVEMAILKNPRYIFFKLESSAPRGSGGIELIPKRSVAMDPGIPLGIPVLISFESSVLTEKNRIVFVHDRGSQITGHGRLDYFLGTGETAEYQAGKINTQGKIFLILPKIKN, SLIHIAIVEDENKDRELLKEYLDRFQAEKGEPLFVHVYPDGEEFLESFSSGKFDILLLDIHMQYMNGMATAQEIRKSDENVLIIFITNLVQYAVQGYSVRAFDFIVKPVEYSVFAQKLYRATQRLNRTIHSCVRFKVLDQIVNLQLSGILYFEIVARKLFIYTDTEIYRCNDTLHSIEEKLNDGHFFRCHAGYLVNVAYVRSVGKDYAMVGSARIPVSKHRRKAFLDAIGNYLGSKEG, SLKDELHKLSYLDANRILEERLTETRYFSLNSNEYKNFQTSNPNFLFAAVIDGHAGGTIADVARKSLGYYLKKELIEIGVNSKRGGCRERAIVSALKKAHLNFDNDLLNQSKDYFLNGTSKYARTGACSLSVLIDERNYYISNIGDSVGLLIKKHFYLPLNRIHNASEFNEKRKLLEEHPNEEDILVCKICTRDYKTVNNNNTYELCKTPFHLLSHHYDNCYVKGRLQPTRSFGDFHLKKKMFAYSVDGTRLFVPEPHSFPYISAEPELRVMKKHPDDQFIVLMSDGVYEFLNHAQVINVIKTYGASPERAAKELINRVLEAAAYSSGMTMKQLLNLDPSIRRNFYDDVSVVVIKLN, SLPNASRVVIVAGEESGDHHAAELVKQLKAVYPDLEISGIGGKHLRAAGVHLISDLTRYAVTGLTEIIPFLKIFRKAFQDIKQHLSTQKPDLLILVDYPAFNLRLAKYAKKKLGLKIIYYISPQIWAWKGKRIHLIKDCIDKMAVIFPFEKTIYENAGVPVSFVGHPLVKKIAAAKDKHSSRTSLGLPLNEPIIALLPGSRHSEIERHIPILVNTAKLLTLDSPKLRFVVPIAGTINPDKVKAYFSNQNLTVTFIQGQAIECMSAADFVIVASGTASLECALLEKPMCIIYKSSFLTYVAAMYFIKVKFLGLCNLLANKMMVPEFLQYDCNAIELSRYISNFHNNPNQPESMINQLAKLKESLSSSQADCSLFDLVVAELPEKNA
